Substitutions are numbered along the chain they refer to. Numbers in names are those of the source. Each block holds one binder with its values, some of them ahead of it.
Columns and labels:
[1] = molecular target: T1, cynomolgus monkey FcγRIIa1 extracellular domain, C-terminal His-tag (cynomolgus monkey); assay: SPR (Biacore); KD of SG1 / KD of variant;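 further: relative to parent M103205H795-SG1 carrying the SG1 human heavy chain constant region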
T1 construct: also called cyno FcγRIIa1; cynoFcgRIIa1
T1 chain: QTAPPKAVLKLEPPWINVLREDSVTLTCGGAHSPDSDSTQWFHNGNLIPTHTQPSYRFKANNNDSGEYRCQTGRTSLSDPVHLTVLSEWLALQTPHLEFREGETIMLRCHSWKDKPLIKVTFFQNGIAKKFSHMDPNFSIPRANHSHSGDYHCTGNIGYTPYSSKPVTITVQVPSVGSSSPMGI
Experimental: (§1) The kinetic analysis of interactions between these antibodies and FcγR was carried out using BIACORE® T200 or BIACORE® 4000 (GE Healthcare). HBS-EP+ (GE Healthcare) was used as the running buffer, and the measurement temperature was set to 25° C. A chip produced by immobilizing Protein A. Protein A/G or mouse anti-human IgG kappa light chain (BD Biosciences) onto a Series S Sensor Chip CM4 or CM5 (GE Healthcare) by the amine-coupling method was used. […] After the measurement, the antibody captured on the chip was washed off by allowing reaction with 10 mM glycine-HCl, pH1.5 and 25 mM NaOH so that the chip was regenerated and used repeatedly. The sensorgrams obtained as measurement results were analyzed by the 1:1 Langmuir binding model using the BIACORE® Evaluation Software to calculate the binding rate constant ka (L/mol/s) and dissociation rate constant kd (l/s), and the dissociation constant KD (mol/L) was calculated from these values. […] Regarding such interactions, KD values were calculated using the following 1:1 binding model described in BIACORE® T100 Software Handbook BR1006-48 Edition AE.
(§2) The behavior of interacting molecules according to the 1:1 binding model on BIACORE® can be described by Equation 1: Req=C·R max/(KD+C)+RI, wherein, Req is a plot of steady-state binding levels to analyte concentration. C is concentration, RI is bulk refractive index contribution in the sample, and Rmax is analyte binding capacity of the surface. When this equation is rearranged, KD can be expressed as Equation 2: KD=C·Rmax/(Req−RI)−C. KD can be calculated by substituting the values of Rmax, RI, and C into Equation 1 or Equation 2. From the current measurement conditions, RI=0, C=2 μmol/L can be used.

[2] = molecular target: T2, cynomolgus monkey FcγRIIa2 extracellular domain, C-terminal His-tag (cynomolgus monkey); assay: SPR (Biacore); KD of SG1 / KD of variant;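 further: relative to parent M103205H795-SG1 carrying the SG1 human heavy chain constant region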
T2 construct: also called cyno FcγRIIa2; cynoFcgRIIa2
T2 chain: T1 chain with P95T, T121A, I127K, A128S, K130N, D135N, R142Q
Experimental: as §1, §2

[3] = molecular target: T3, cynomolgus monkey FcγRIIa3 extracellular domain, C-terminal His-tag (cynomolgus monkey); assay: SPR (Biacore); KD of SG1 / KD of variant;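 further: relative to parent M103205H795-SG1 carrying the SG1 human heavy chain constant region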
T3 construct: also called cyno FcγRIIa3; cynoFcgRIIa3
T3 chain: T1 chain with P95T, T121A, A128S, H133P, D135N
Experimental: as §1, §2

[4] = molecular target: T4, cynomolgus monkey FcγRIIb extracellular domain, C-terminal His-tag (cynomolgus monkey); assay: SPR (Biacore); KD of SG1 / KD of variant;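 further: relative to parent M103205H795-SG1 carrying the SG1 human heavy chain constant region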
T4 construct: also called cyno FcγRIIb; cynoFcγRIIb
T4 chain: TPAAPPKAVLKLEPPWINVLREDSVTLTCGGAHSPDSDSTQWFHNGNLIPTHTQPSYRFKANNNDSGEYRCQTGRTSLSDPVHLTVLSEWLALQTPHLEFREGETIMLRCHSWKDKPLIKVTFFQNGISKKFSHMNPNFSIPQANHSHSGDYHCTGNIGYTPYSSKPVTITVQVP
Experimental: as §1, §2

[5] = molecular target: T5, cynomolgus monkey FcγRIIIaS extracellular domain, C-terminal His-tag (cynomolgus monkey, UniProt Q8SPW2 21-206 at identity 1.00)); assay: SPR (Biacore); KD of SG1 / KD of variant
T5 construct: also called cyno FcγRIIIaS; cynoFcγRIIIaS
T5 chain: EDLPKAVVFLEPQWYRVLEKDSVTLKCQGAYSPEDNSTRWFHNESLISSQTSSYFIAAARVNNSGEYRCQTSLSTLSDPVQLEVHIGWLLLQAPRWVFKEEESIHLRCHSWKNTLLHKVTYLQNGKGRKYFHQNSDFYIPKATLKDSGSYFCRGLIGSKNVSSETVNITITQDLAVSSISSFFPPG
Experimental: as §1, §2

[6] = molecular target: T6, human FcγRIIaR extracellular domain, C-terminal His-tag (human, UniProt P12318 34-217); assay: SPR (Biacore); KD of SG1 / KD of variant
T6 construct: also called human FcγRIIa (type R); FcgRIIaR
T6 chain: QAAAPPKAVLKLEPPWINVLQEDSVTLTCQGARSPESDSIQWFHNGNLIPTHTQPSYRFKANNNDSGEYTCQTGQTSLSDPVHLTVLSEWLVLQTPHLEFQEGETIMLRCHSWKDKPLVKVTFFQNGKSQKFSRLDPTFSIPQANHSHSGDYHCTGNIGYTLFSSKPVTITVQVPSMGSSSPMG
Experimental: as §1, §2

[7] = molecular target: T7, human FcγRIIb extracellular domain, C-terminal His-tag (human, UniProt P31994 43-217); assay: SPR (Biacore); KD of SG1 / KD of variant
T7 construct: also called human FcgRIIb; FcgRIIb
T7 sequence: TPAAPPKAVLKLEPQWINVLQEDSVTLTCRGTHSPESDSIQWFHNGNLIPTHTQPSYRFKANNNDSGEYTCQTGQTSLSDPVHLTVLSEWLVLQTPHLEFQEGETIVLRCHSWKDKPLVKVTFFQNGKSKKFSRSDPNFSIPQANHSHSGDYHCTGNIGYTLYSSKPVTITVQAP
Experimental: as §1, §2

[8] = molecular target: T1, cynomolgus monkey FcγRIIa1 …; assay: SPR (Biacore), antibody captured, FcgR analyte
[9] = molecular target: T2, cynomolgus monkey FcγRIIa2 …; assay: SPR (Biacore), antibody captured, FcgR analyte
[10] = molecular target: T3, cynomolgus monkey FcγRIIa3 …; assay: SPR (Biacore), antibody captured, FcgR analyte
[11] = molecular target: T4, cynomolgus monkey FcγRIIb extracellular …; assay: SPR (Biacore), antibody captured, FcgR analyte
[12] = molecular target: T5, cynomolgus monkey FcγRIIIaS …; assay: SPR (Biacore), antibody captured, FcgR analyte
[13] = molecular target: T8, human FcγRIIaH extracellular domain, C-terminal His-tag (human, UniProt P12318 34-217); assay: SPR (Biacore), antibody captured, FcgR analyte
T8 construct: also called human FcγRIIa (type H); FcgRIIaH
T8 sequence: T6 chain with R134H

[14] = molecular target: T6, human FcγRIIaR extracellular domain, …; assay: SPR (Biacore), antibody captured, FcgR analyte
[15] = molecular target: T7, human FcγRIIb extracellular domain, …; assay: SPR (Biacore), antibody captured, FcgR analyte
[16] = molecular target: T9, human FcγRIIIaV extracellular domain, C-terminal His-tag (human, UniProt P08637 17-208); assay: SPR (Biacore), antibody captured, FcgR analyte
T9 construct: also called human FcgRIIIaV; FcgRIIIaV
T9 sequence (P08637 17-208 F176V): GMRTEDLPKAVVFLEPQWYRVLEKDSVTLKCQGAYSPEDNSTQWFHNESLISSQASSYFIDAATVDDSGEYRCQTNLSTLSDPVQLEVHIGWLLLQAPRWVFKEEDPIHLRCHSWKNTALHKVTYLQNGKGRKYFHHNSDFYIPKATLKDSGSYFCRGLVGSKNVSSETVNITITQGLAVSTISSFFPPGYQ

[17] = molecular target: T10, cynomolgus monkey FcγRIIa1 extracellular domain, C-terminal His-tag (cynomolgus monkey); assay: SPR; FcgR bound per captured antibody, normalized to SG1
T10 construct: also called cyno FcγRIIa1; FcgRIIa1
T10 chain: T1 chain
Experimental: as §1
(§3) The value of the amount of FcγR binding was obtained by dividing the amount of FcγR bound by the amount of each antibody captured.

[18] = molecular target: T11, cynomolgus monkey FcγRIIa2 extracellular domain, C-terminal His-tag (cynomolgus monkey); assay: as above
T11 construct: also called cyno FcγRIIa2; FcgRIIa2
T11 chain: T1 chain with P95T, T121A, I127K, A128S, K130N, D135N, R142Q
Experimental: as §1, §3

[19] = molecular target: T12, cynomolgus monkey FcγRIIa3 extracellular domain, C-terminal His-tag (cynomolgus monkey); assay: as above
T12 construct: also called cyno FcγRIIa3; FcgRIIa3
T12 chain: T1 chain with P95T, T121A, A128S, H133P, D135N
Experimental: as §1, §3

[20] = molecular target: T13, cynomolgus monkey FcγRIIb extracellular domain, C-terminal His-tag (cynomolgus monkey); assay: as above
T13 construct: also called cyno FcγRIIb; cynoFcγRIIb
T13 chain: T4 chain
Experimental: as §1, §3

B1: M103205H795-MY144/M103202L889-SK1 (antibody, human IgG1, kappa)
heavy: QVTLKESGPVLVKPTETLTLTCTVSGIDLSHDDISWVRQAPGKGLEWVGIISYAGSTYYASWAKGRLTISKDTSKNQVVLTMTNMDPVDTATYYCARGVPAYSHGGDLWGQGTLVTVSSASTKGPSVFPLAPSSKSTSGGTAALGCLVKDYFPEPVTVSWNSGALTSGVHTFPAVLQSSGLYSLSSVVTVPSSSLGTQTYICNVNHKPSNTKVDKKVEPKSCDKTHTCPPCPAPELLNGPSVFLFPPKPKDTLMISRTPEVTCVVVDVSDEDPEVKFNWYVDGVEVHNAKTKPREEQYNSTYRVVSVLTVLHQDWLNGKEYKCKVSNKALPAPIEKTISKAKGQPREPQVYTLPPSREEMTKNQVSLTCLVKGFYPSDIAVEWESNGQPENNYKTTPMVLDSDGSFFLYSKLTVDKSRWQQGNVFSCSVMHEALHNHYTQKSLSLSP
light: DIVMTQSPATLSLSPGERATLSCTSSQSVYHANWLSWFQQKPGQPPKLLIYWASTLAYGVPSRFSGSGSGTDFTLTISSLQPEDAATYYCAGGYGGGRYAFGQGTKVEIKRTVAAPSVFIFPPSDEQLKSGTASVVCLLNNFYPREAKVQWKVDNALQSGNSQESVTEQDSKDSTYSLSSTLTLSKADYEKHKVYACEVTHQGLSSPVTKSFNRGEC
notes: P369M is read as a misprint of P396M
KD fold (SG1 = 1) [1]: 3.6 fold | KD fold (SG1 = 1) [2]: 5.7 fold | KD fold (SG1 = 1) [3]: 4.5 fold | KD fold (SG1 = 1) [4]: 4.1 fold | KD fold (SG1 = 1) [5]: 0.16 fold | KD fold (SG1 = 1) [6]: 0.8 fold | KD fold (SG1 = 1) [7]: 6.2 fold | Kd [8]: 890 nM | Kd [9]: 820 nM | Kd [10]: 3800 nM | Kd [11]: 440 nM | Kd [12]: 2300 nM | Kd [13]: 650 nM | Kd [14]: 13000 nM | Kd [15]: 740 nM | Kd [16]: 7700 nM

B3: M103205H795-SG165/M103202L889-SK1 (antibody, human IgG1, kappa)
heavy: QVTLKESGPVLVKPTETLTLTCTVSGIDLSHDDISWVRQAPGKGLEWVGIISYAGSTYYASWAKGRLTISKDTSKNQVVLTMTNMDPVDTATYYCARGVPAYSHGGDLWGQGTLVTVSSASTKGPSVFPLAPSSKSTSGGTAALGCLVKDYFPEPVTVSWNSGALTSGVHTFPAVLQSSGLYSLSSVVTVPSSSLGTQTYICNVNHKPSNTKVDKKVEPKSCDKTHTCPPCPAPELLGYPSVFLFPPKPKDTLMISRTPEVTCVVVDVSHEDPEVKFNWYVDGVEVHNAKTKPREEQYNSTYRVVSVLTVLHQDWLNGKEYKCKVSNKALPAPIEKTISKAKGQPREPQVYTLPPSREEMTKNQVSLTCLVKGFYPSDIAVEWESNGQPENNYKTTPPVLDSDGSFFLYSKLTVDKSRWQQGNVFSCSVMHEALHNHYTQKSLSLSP
light: B1 light
notes: also called G237Y
amount of FcgR binding (SG1 = 100) [17]: 18 SG1 = 100 | amount of FcgR binding (SG1 = 100) [18]: 17 SG1 = 100 | amount of FcgR binding (SG1 = 100) [19]: 30 SG1 = 100 | amount of FcgR binding (SG1 = 100) [20]: 30 SG1 = 100

More lines, now with the values ahead:

amount of FcgR binding (SG1 = 100) [17]: 17 SG1 = 100 | amount of FcgR binding (SG1 = 100) [18]: 20 SG1 = 100 | amount of FcgR binding (SG1 = 100) [19]: 18 SG1 = 100 | amount of FcgR binding (SG1 = 100) [20]: 20 SG1 = 100
B2: M103205H795-SG171/M103202L889-SK1 (antibody, human IgG1, kappa)
heavy: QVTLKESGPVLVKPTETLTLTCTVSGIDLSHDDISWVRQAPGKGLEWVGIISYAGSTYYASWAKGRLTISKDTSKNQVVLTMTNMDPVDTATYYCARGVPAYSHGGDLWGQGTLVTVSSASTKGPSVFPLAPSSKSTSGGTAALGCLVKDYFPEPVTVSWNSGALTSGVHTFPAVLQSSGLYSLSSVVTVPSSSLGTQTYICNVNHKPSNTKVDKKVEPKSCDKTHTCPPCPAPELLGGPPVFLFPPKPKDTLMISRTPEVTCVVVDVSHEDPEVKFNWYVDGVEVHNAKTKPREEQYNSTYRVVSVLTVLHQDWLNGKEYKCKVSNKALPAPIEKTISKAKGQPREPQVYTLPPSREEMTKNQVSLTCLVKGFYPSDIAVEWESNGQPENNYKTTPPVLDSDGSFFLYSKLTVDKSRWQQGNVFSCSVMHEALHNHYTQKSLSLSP
light: B1 light
notes: also called S239P

amount of FcgR binding (SG1 = 100) [17]: 13 SG1 = 100 | amount of FcgR binding (SG1 = 100) [18]: 13 SG1 = 100 | amount of FcgR binding (SG1 = 100) [19]: 17 SG1 = 100 | amount of FcgR binding (SG1 = 100) [20]: 14 SG1 = 100
B4: M103205H795-SG175/M103202L889-SK1 (antibody, human IgG1, kappa)
heavy: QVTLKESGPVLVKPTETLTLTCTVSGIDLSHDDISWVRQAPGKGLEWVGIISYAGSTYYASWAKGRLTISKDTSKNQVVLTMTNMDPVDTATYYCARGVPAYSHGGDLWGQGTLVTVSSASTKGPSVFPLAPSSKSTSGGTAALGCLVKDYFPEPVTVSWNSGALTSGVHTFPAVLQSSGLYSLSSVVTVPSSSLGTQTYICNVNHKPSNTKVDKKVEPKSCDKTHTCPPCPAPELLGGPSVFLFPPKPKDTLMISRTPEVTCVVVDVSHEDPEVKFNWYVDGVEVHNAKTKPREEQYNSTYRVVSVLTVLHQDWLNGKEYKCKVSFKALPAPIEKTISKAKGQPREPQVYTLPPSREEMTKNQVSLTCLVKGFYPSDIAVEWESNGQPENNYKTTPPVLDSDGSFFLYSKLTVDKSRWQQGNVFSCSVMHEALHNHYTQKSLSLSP
light: B1 light
notes: also called N325F

From US20200317768A1 (published 2020)
